Measured values published in US20080090770A1 (published 2008).
Where no end group is shown, it is not given here.

B1: YGRKKRRQRRRARGDRKRIV (SEQ ID NO: 136) (peptide)
peptide: YGRKKRRQRRRARGDRKRIV
modifications: also: biotinylated, position not given here
notes: also called AVC#1796; AVC 1796
B2: YGRKKRRQRRRARGDRKIRV (SEQ ID NO: 152) (peptide)
peptide: YGRKKRRQRRRARGDRKIRV
modifications: also: biotinylated, position not given here
notes: TAT plus 9 residues; also called AVC#1836
B3: YGRKKRRQRRRARGDRKKIV (SEQ ID NO: 166) (peptide)
peptide: YGRKKRRQRRRARGDRKKIV
modifications: also: biotinylated, position not given here
notes: TAT plus 9 residues; also called AVC#1850
B4: YGRKKRRQRRRARGDRKRWA (SEQ ID NO: 140) (peptide)
peptide: YGRKKRRQRRRARGDRKRWA
modifications: also: biotinylated, position not given here
notes: TAT plus 9 residues; also called AVC#1821
B5: YGRKKRRQRRRARGDRKRWL (SEQ ID NO: 141) (peptide)
peptide: YGRKKRRQRRRARGDRKRWL
modifications: also: biotinylated, position not given here
notes: TAT plus 9 residues; also called AVC#1822
B6: YGRKKRRQRRRARGDRKVPV (SEQ ID NO: 157) (peptide)
peptide: YGRKKRRQRRRARGDRKVPV
modifications: also: biotinylated, position not given here
notes: TAT plus 9 residues; also called AVC#1841
B7: YGRKKRRQRRRARGDRKYIV (SEQ ID NO: 154) (peptide)
peptide: YGRKKRRQRRRARGDRKYIV
modifications: also: biotinylated, position not given here
notes: TAT plus 9 residues; also called AVC#1838
B8: YGRKKRRQRRRARGDRLEIV (SEQ ID NO: 163) (peptide)
peptide: YGRKKRRQRRRARGDRLEIV
modifications: also: biotinylated, position not given here
notes: TAT plus 9 residues; also called AVC#1847
B9: YGRKKRRQRRRARGDRRRIV (SEQ ID NO: 165) (peptide)
peptide: YGRKKRRQRRRARGDRRRIV
modifications: also: biotinylated, position not given here
notes: TAT plus 9 residues; also called AVC#1849
B10: YGRKKRRQRRRARGDRTIIY (SEQ ID NO: 164) (peptide)
peptide: YGRKKRRQRRRARGDRTIIY
modifications: also: biotinylated, position not given here
notes: TAT plus 9 residues; also called AVC#1848
B11: YGRKKRRQRRRARGDRYRIV (SEQ ID NO: 161) (peptide)
peptide: YGRKKRRQRRRARGDRYRIV
modifications: also: biotinylated, position not given here
notes: TAT plus 9 residues; also called AVC#1845
B12: YGRKKRRQRRRARSDRGIWA (SEQ ID NO: 142) (peptide)
peptide: YGRKKRRQRRRARSDRGIWA
modifications: also: biotinylated, position not given here
notes: TAT plus 9 residues; also called AVC#1823
B13: YGRKKRRQRRRARSDRKRIA (SEQ ID NO: 147) (peptide)
peptide: YGRKKRRQRRRARSDRKRIA
modifications: also: biotinylated, position not given here
notes: TAT plus 9 residues; also called AVC#1831
B14: YGRKKRRQRRRARSDRKRIV (SEQ ID NO: 167) (peptide)
peptide: YGRKKRRQRRRARSDRKRIV
modifications: also: biotinylated, position not given here
notes: TAT plus 9 residues; also called AVC#1851
B15: YGRKKRRQRRRARSDRTIIA (SEQ ID NO: 146) (peptide)
peptide: YGRKKRRQRRRARSDRTIIA
modifications: also: biotinylated, position not given here
notes: TAT plus 9 residues; also called AVC#1830
B16: YGRKKRRQRRRARSDRTIWA (SEQ ID NO: 145) (peptide)
peptide: YGRKKRRQRRRARSDRTIWA
modifications: also: biotinylated, position not given here
notes: TAT plus 9 residues; also called AVC#1829
B17: YGRKKRRQRRRARTDRKVEV (SEQ ID NO: 153) (peptide)
peptide: YGRKKRRQRRRARTDRKVEV
modifications: also: biotinylated, position not given here
notes: TAT plus 9 residues; also called AVC#1837
B18: YGRKKRRQRRRQDERRLIVL (SEQ ID NO: 158) (peptide)
peptide: YGRKKRRQRRRQDERRLIVL
modifications: also: biotinylated (position not given here)
notes: TAT plus 9 residues; also called AVC#1842
B19: YGRKKRRQRRRARGDRLVSL (SEQ ID NO: 159) (peptide)
peptide: YGRKKRRQRRRARGDRLVSL
modifications: also: biotinylated, position not given here
notes: TAT plus 9 residues; also called AVC#1843
B20: YGRKKRRQRRRARGTRLVWV (SEQ ID NO: 160) (peptide)
peptide: YGRKKRRQRRRARGTRLVWV
modifications: also: biotinylated, position not given here
notes: TAT plus 9 residues; also called AVC#1844
B21: YGRKKRRQRRRSRTDRLEYV (SEQ ID NO: 162) (peptide)
peptide: YGRKKRRQRRRSRTDRLEYV
modifications: also: biotinylated (position not given here)
notes: TAT plus 9 residues; also called AVC#1846
B22: YGRKKRRQRRRKNKDKEYYV (SEQ ID NO: 168) (peptide)
peptide: YGRKKRRQRRRKNKDKEYYV
modifications: also: biotinylated, position not given here
notes: TAT plus 9 residues; also called AVC#1852
B23: YGRKKRRQRRRGMTSSSSVV (SEQ ID NO: 169) (peptide)
peptide: YGRKKRRQRRRGMTSSSSVV
modifications: also: biotinylated, position not given here
notes: TAT plus 9 residues; also called AVC#1853
B24: YGRKKRRQRRRQDERVETRV (SEQ ID NO: 171) (peptide)
peptide: YGRKKRRQRRRQDERVETRV
modifications: also: biotinylated (position not given here)
notes: TAT plus 9 residues; also called AVC#1855
B25: YGRKKRRQRRRLQRRRETQV (AVC#1856) (peptide)
peptide: YGRKKRRQRRRLQRRRETQV
modifications: also: biotinylated, position not given here
notes: TAT plus 9 residues
B26: YGRKKRRQRRRAVAATSINL (SEQ ID NO: 138) (peptide)
peptide: YGRKKRRQRRRAVAATSINL
modifications: also: biotinylated, position not given here
notes: TAT plus 9 residues; also called AVC#1791; AVC 1791
B27: YGRKKRRQRRRAVAATYSNL (SEQ ID NO: 139) (peptide)
peptide: YGRKKRRQRRRAVAATYSNL
modifications: also: biotinylated, position not given here
notes: TAT plus 9 residues; also called AVC#1793
B28: YGRKKRRQRRRQDEEEGIWA (SEQ ID NO: 137) (peptide)
peptide: YGRKKRRQRRRQDEEEGIWA
modifications: also: biotinylated, position not given here
notes: also called AVC#1790; AVC 1790
B29: YGRKKRRQRRRQDEEEGIWS (SEQ ID NO: 149) (peptide)
peptide: YGRKKRRQRRRQDEEEGIWS
modifications: also: biotinylated, position not given here
notes: TAT plus 9 residues; also called AVC#1833
B30: YGRKKRRQRRRQDEEETIWA (SEQ ID NO: 144) (peptide)
peptide: YGRKKRRQRRRQDEEETIWA
modifications: also: biotinylated (position not given here)
notes: TAT plus 9 residues; also called AVC#1828
B31: YGRKKRRQRRRAVAATGIWA (SEQ ID NO: 143) (peptide)
peptide: YGRKKRRQRRRAVAATGIWA
modifications: also: biotinylated, position not given here
notes: TAT plus 9 residues; also called AVC#1827
B32: YGRKKRRQRRRSRTDRKYWA (SEQ ID NO: 148) (peptide)
peptide: YGRKKRRQRRRSRTDRKYWA
modifications: also: biotinylated (position not given here)
notes: TAT plus 9 residues; also called AVC#1832
B33: YGRKKRRQRRRSRTDRKYQI (SEQ ID NO: 155) (peptide)
peptide: YGRKKRRQRRRSRTDRKYQI
modifications: also: biotinylated (position not given here)
notes: TAT plus 9 residues; also called AVC#1839
B34: YGRKKRRQRRRSRTVREIWA (SEQ ID NO: 150) (peptide)
peptide: YGRKKRRQRRRSRTVREIWA
modifications: also: biotinylated (position not given here)
notes: TAT plus 9 residues; also called AVC#1834
B35: YGRKKRRQRRRSVTSTSINL (SEQ ID NO: 151) (peptide)
peptide: YGRKKRRQRRRSVTSTSINL
modifications: also: biotinylated (position not given here)
notes: TAT plus 9 residues; also called AVC#1835
B36: YGRKKRRQRRRARGDVRLML (SEQ ID NO: 156) (peptide)
peptide: YGRKKRRQRRRARGDVRLML
modifications: also: biotinylated, position not given here
notes: TAT plus 9 residues; also called AVC#1840
B37: MUC1 C-terminus peptide NGGSSLSYTNPAVAATSANL (SEQ ID NO: 96) (peptide)
peptide: NGGSSLSYTNPAVAATSANL
modifications: also: biotinylated, position not given here
notes: also called C-terminus of MUC1; MUC1 peptide
B38: Flag-MUC1-CD(1-68) (other)
chain: CQCRRKNYGQLDIFPARDTYHPMSEYPTYHTHGRYVPPSSTDRSPYEKVSAGNGGSSLSYTNPAVAAT
notes: also called pIRESpuro2-Flag-MUC1-CD(1-68); truncated MUC1 cytoplasmic domain; not shown: Flag tag
B39: YGRKKRRQRRRAVAAASANL (SEQ ID NO: 135) (peptide)
peptide: YGRKKRRQRRRAVAAASANL
modifications: also: biotinylated, position not given here

Molecular target: T1, GST-RIM2 (KIAA0751) PDZ domain 1 (human)
T1 construct: Construct RIM2, PDZ domain 1-pGEX-3X; vector sites BamH1/EcoR1, insert sites BglII/MfeI; also called GST-RIM2 PDZ domain; RIM3 (as printed once)
Test: modified ELISA, plated GST-RIM2 PDZ domain, biotinylated peptide 0.001-10 µM, curve fit; Relative EC50

T1 sequence (chain, as listed by the source): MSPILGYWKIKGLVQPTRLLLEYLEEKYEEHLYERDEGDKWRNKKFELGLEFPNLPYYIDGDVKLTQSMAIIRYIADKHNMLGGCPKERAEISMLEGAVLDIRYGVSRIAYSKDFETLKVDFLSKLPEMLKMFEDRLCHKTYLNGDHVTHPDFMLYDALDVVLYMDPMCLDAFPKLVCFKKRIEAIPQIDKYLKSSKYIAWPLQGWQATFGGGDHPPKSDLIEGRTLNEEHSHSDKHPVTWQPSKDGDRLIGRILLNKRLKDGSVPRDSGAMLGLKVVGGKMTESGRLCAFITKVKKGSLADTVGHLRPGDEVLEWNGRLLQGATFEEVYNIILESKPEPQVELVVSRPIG

Q: With B1 as the binder, how does the EC50 read?
A: 20 nM

Q: B2 was tested. Which EC50 did it give?
A: 10 nM

Q: B3 was tested. Which EC50 did it give?
A: 47 nM

Q: B4 was tested. Which EC50 did it give?
A: 7 nM

Q: With B5 as the binder, how does the EC50 read?
A: 8 nM

Q: With B6 as the binder, how does the EC50 read?
A: 45 nM

Q: B7 was tested. Which EC50 did it give?
A: 13 nM

Q: How did the EC50 turn out when B8 was run?
A: 132 nM

Q: For B9, which EC50 is on record?
A: 37 nM

Q: With B10 as the binder, how does the EC50 read?
A: 30 nM

Q: For B11, which EC50 is on record?
A: 38 nM

Q: With B12 as the binder, how does the EC50 read?
A: < 10 nM

Q: B13 was tested. Which EC50 did it give?
A: 45 nM

Q: With B14 as the binder, how does the EC50 read?
A: 47 nM

Q: For B15, which EC50 is on record?
A: 13 nM

Q: For B16, which EC50 is on record?
A: < 10 nM

Q: For B17, which EC50 is on record?
A: 40 nM

Q: Which EC50 does the source give for B18 here?
A: 78 nM

Q: B19 was tested. Which EC50 did it give?
A: 68 nM

Q: For B20, which EC50 is on record?
A: < 10 nM

Q: Which EC50 does the source give for B21 here?
A: 10 nM

Q: Which EC50 does the source give for B22 here?
A: 13 nM

Q: With B23 as the binder, how does the EC50 read?
A: 135 nM

Q: For B24, which EC50 is on record?
A: 880 nM

Q: B25 was tested. Which EC50 did it give?
A: 33 nM

Q: For B26, which EC50 is on record?
A: 40 nM

Q: Which EC50 does the source give for B27 here?
A: 600 nM

Q: B28 was tested. Which EC50 did it give?
A: 5 nM

Q: Which EC50 does the source give for B29 here?
A: 50 nM

Q: B30 was tested. Which EC50 did it give?
A: 240 nM

Q: With B31 as the binder, how does the EC50 read?
A: < 10 nM

Q: How did the EC50 turn out when B32 was run?
A: < 10 nM

Q: Which EC50 does the source give for B33 here?
A: 22 nM

Q: For B34, which EC50 is on record?
A: < 10 nM

Q: B35 was tested. Which EC50 did it give?
A: 90 nM

Q: How did the EC50 turn out when B36 was run?
A: ~30 nM

Molecular target: GST-LIM Mystique PDZ domain 1 (human)
Test: modified ELISA, GST-PDZ captured by anti-GST, biotinylated MUC1 peptide titrated, HRP-streptavidin
Source text: Titrations to determine relative EC₅₀ values: Peptide corresponding to MUC1 was then titrated against a constant amount of the PDZ domain-containing recombinant proteins identified in the first part of this example.

Chain of GST-LIM Mystique PDZ domain 1 (human) (chain, as listed by the source limits assumed): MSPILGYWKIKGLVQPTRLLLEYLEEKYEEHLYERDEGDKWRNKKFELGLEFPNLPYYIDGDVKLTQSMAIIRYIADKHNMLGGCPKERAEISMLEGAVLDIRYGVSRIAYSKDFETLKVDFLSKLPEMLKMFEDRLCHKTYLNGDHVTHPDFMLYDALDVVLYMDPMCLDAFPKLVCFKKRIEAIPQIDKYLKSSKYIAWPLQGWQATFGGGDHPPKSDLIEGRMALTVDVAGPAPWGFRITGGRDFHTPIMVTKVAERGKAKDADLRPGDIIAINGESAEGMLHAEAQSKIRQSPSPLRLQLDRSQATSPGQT

Q: For B37, which EC50 is on record?
A: 10 nM

Molecular target: T2, EGFR (UniProt P00533 25-1210)
T2 construct: also called HER1
Test: immunoprecipitation with anti-EGFR from lysates of transfected 293 cells, anti-MUC1-CD immunoblot
Procedure: Lysates were subjected to immunoprecipitation with anti-EGFR or IgG as a control.
Equal amounts of cell lysate were incubated with anti-EGFR (Santa Cruz Biotechnology, Santa Cruz, Calif.) or mouse IgG. […] Reactivity was detected with a horseradish peroxidase-conjugated second antibody and chemiluminescence.

Q: Does B38 bind?
A: no binding

Molecular target: FGFR3 (UniProt P22607 23-806, limits assumed)
Test: immunoprecipitation with anti-FGFR3 from lysates of transfected 293 cells, anti-MUC1-CD immunoblot
Procedure: Lysates were subjected to immunoprecipitation with anti-FGFR3 or IgG as a control.
Equal amounts of cell lysate were incubated with anti-FGFR3 or mouse IgG. […] Reactivity was detected with a horseradish peroxidase-conjugated second antibody and chemiluminescence.

Chain of FGFR3 (P22607 23-806 limits assumed): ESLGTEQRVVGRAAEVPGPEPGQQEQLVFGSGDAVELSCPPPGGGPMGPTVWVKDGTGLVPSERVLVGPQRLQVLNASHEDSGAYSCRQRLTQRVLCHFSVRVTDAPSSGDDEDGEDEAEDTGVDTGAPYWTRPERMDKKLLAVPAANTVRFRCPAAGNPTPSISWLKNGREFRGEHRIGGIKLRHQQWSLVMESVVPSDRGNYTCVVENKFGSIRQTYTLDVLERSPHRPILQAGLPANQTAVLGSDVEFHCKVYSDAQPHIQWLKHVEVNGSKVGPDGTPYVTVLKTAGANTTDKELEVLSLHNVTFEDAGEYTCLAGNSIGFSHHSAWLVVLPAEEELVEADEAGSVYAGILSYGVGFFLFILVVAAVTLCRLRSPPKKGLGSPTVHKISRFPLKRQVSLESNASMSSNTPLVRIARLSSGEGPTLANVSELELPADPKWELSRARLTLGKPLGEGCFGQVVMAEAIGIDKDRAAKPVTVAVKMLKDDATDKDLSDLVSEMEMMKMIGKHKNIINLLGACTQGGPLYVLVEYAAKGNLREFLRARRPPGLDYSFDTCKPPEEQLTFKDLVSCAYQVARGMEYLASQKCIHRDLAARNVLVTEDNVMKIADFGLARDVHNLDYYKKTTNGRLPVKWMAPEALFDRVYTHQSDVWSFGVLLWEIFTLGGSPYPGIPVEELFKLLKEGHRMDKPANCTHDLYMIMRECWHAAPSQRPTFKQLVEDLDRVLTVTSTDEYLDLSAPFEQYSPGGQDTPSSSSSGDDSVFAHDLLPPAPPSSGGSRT

Q: Does B38 bind?
A: no binding

Molecular target: T1, GST-RIM2 (KIAA0751) PDZ domain 1
Test: modified ELISA, peptide titration

Q: Does B39 bind?
A: binds

Molecular target: T1, GST-RIM2 (KIAA0751) PDZ domain 1
Test: modified ELISA, GST-PDZ captured by anti-GST, biotinylated peptide titrated

Q: For B1, which EC50 is on record?
A: 20 nM

Q: B26 was tested. Which EC50 did it give?
A: 40 nM

Q: For B28, which EC50 is on record?
A: 5 nM

Molecular target: T3, GST-ZO-1 PDZ domain 2 (human)
T3 construct: also called ZO-1 d2; ZO1 d2
Test: as above

T3 sequence (chain, as listed by the source): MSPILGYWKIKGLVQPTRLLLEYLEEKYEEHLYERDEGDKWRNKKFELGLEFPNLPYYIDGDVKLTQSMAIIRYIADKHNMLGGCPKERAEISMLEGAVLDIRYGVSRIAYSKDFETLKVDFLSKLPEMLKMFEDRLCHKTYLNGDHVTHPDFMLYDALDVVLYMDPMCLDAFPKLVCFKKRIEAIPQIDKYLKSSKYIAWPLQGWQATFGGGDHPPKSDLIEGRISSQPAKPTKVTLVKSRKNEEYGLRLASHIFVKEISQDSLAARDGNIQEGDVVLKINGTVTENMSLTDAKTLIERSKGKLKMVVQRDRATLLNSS

Q: How did the EC50 turn out when B1 was run?
A: 20 nM

Q: How did the EC50 turn out when B26 was run?
A: 8 nM

Q: With B28 as the binder, how does the EC50 read?
A: 50 nM
